Percent inhibition of ADAM17 activity and IC50 (nM), inhibition of ADAM10 cleavage of the fluorescent substrate PEPDAB064 data for one molecule are collected here from patent US20250207119A1.

Assay [1] deals with ADAM17 from R & D Systems (UniProt P78536). As to the kind of experiment: cell-based or functional assay.
Assay [2] has as its target Human ADAM10 from R & D Systems (human) (UniProt O14672). Nature of the assay: cell-based or functional assay.

Sequence of ADAM17 from R & D Systems (P78536 215-671 limits assumed): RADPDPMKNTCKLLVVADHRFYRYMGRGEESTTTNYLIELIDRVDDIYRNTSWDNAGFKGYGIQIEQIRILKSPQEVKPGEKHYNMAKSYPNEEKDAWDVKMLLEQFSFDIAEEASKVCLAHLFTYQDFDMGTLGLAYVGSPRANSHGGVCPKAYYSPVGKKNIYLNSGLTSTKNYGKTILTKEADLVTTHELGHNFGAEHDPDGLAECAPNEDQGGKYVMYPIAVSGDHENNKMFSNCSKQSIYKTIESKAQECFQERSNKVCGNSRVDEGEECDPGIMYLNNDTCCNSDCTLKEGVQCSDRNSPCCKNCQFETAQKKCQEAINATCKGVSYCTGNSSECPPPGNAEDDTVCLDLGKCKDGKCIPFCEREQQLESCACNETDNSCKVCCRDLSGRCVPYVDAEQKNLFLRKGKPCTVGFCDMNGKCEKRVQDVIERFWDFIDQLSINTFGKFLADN
Sequence of Human ADAM10 from R & D Systems (human) (O14672 214-672 limits assumed): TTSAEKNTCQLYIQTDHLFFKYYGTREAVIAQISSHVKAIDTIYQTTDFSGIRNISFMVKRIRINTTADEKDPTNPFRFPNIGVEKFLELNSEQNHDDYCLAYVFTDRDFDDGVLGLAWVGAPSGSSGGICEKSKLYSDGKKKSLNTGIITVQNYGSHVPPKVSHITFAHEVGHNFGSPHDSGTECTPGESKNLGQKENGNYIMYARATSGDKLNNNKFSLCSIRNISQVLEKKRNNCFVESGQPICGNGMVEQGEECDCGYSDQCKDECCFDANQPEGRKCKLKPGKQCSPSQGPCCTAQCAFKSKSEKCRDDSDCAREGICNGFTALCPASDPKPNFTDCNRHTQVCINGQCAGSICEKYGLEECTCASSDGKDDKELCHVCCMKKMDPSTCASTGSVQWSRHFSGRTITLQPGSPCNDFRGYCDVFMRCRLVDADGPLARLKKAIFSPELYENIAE

B1: Cys151-pegylated SEQ ID NO: 1 (peptide, not shown: small tags and cut ends)
chain: NPLNKYIRHYEGLSYNVDSLHQKHQRAKRAVSHEDQFLRLDFHAHGRHFNLRMKRDTSLFSDEFKVETSNKVLDYDTSHIYTGHIYGEEGSFSHGSVIDGRFEGFIQTRGGTFYVEPAERYIKDRTLPFHSVIYHEDDINYPHKYGPQGGCADHSVFERMRKYQMTGVEEVTQIPQEEHAANGPELLRK
modifications: 10 kDa maleimide PEG on Cys151
B1: in assay [1], the percent inhibition of ADAM17 activity amounted to 33 % at 6.7 µM. In assay [2], this molecule had an IC50 (nM), inhibition of ADAM10 cleavage of the fluorescent substrate PEPDAB064 of 49 nM.
